B1: CPEB3 Ribozyme (parent)
chain: UAACAGGGGGCCACAGCAGAAGCGUUCACGUCGCAGCCCCUGUCAGAUUCUGGUGAAUCUGCGAAUUCUGCUGUAUAUCUC

Variants of B1 are the subject of the data set. Put plainly: self-cleavage, relative activity (ratio to wild type); higher = more cleavage; in vitro, sequencing. Put shortly: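 After error-prone PCR and barcoding, CPEB3 ribozyme mutant libraries were transcribed with T7 RNA polymerase at 37°C for 5 hours, then given 15 min with DNase I before an EDTA stop, and they cleaved during both steps. Reverse transcription with template switching preceded Illumina sequencing. Relative activity divides a variant's cleaved/total read fraction by the unmutated ribozyme's. At least 5 reads were required per variant, and three batches were averaged.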
U25C A65U: the self-cleavage turned out to be 0.28.

As to A57G A65G, the self-cleavage was 0.37.

On to A2G C79A, for which the self-cleavage stood at 1.01.

For the variant C44U U67A, the self-cleavage is 0.14.

For the variant A18G A28C, the self-cleavage came to 0.38.

Consider C14A, for which the self-cleavage was 1.17.

Take G19C G30C: the self-cleavage worked out at 0.25.

As for C23G A75U, the self-cleavage was 0.07.

C4U C29U: the self-cleavage turned out to be 0.72.

Turning to U67C G70A, the self-cleavage turned out to be 0.18.

Consider U48C U78C, for which the self-cleavage worked out at 0.54.

In the case of G8U U78C, the self-cleavage was 0.17.

On to A2G A13G, for which the self-cleavage was found to be 0.59.

As to C38U U80C, the self-cleavage is 1.01.

A2C U51G: the self-cleavage was 0.92.

As for A18G C71G, the self-cleavage was 0.27.

In the case of U1A A18G, the self-cleavage came to 0.57.

Turning to C44G A77G, the self-cleavage came to 0.62.

Take A15G C44A: the self-cleavage came out at 0.28.

On to C11U G33A, for which the self-cleavage worked out at 0.42.

As for C17A U49C, the self-cleavage is 0.19.

Regarding C14U A18U, the self-cleavage is 0.44.

Regarding A15G U54A, the self-cleavage worked out at 0.95.

Take U43A C59G: the self-cleavage was 0.41.

As to A21C G73A, the self-cleavage was 0.35.

For C37U A65U, the self-cleavage was found to be 0.16.

In the case of U48C U74A, the self-cleavage was determined as 0.88.

As for A57U U60C, the self-cleavage worked out at 0.27.

For G33A U54C, the self-cleavage was 0.15.

On to A5C A15G, for which the self-cleavage was determined as 0.96.

Take A18U U74C: the self-cleavage came out at 0.61.

In the case of U48C U76A, the self-cleavage was 0.72.

Consider A28G U78A, for which the self-cleavage is 0.71.

With G19A A45U, the self-cleavage stood at 0.07.

On to U26A A45C, for which the self-cleavage was determined as 0.21.

Take A3C A56U: the self-cleavage worked out at 0.65.

Turning to A5U C14A, the self-cleavage was 1.19.

With A56G U67C, the self-cleavage stood at 0.3.

As for A47G U69A, the self-cleavage amounted to 0.6.

Regarding C32U U69C, the self-cleavage is 0.17.

Consider C37A G73C, for which the self-cleavage is 0.38.

Regarding A18G A45G, the self-cleavage worked out at 0.46.

For U1C A3G, the self-cleavage stood at 0.9.

U66C U80A: the self-cleavage was 0.48.

For the variant G53C U72C, the self-cleavage was 1.21.

With U26A U69C, the self-cleavage amounted to 0.4.

With C29U C59A, the self-cleavage was determined as 0.24.

With C44A A56U, the self-cleavage was determined as 0.21.

As for U58A U60G, the self-cleavage amounted to 0.17.

For the variant A3G C14A, the self-cleavage was 1.13.

Consider G53C U60C, for which the self-cleavage is 0.55.

G19A U48C: the self-cleavage came to 0.16.

For U41G U58A, the self-cleavage is 0.33.

As to U31C C71G, the self-cleavage came out at 0.23.

On to C17U U76C, for which the self-cleavage came out at 0.83.

For the variant G6A U67A, the self-cleavage amounted to 0.4.

On to G8A A75U, for which the self-cleavage was found to be 0.24.

For the variant G8A A75G, the self-cleavage turned out to be 0.21.

For the variant C23U U74A, the self-cleavage stood at 0.58.

Regarding U49G U80C, the self-cleavage was determined as 0.48.

Consider C14G U49C, for which the self-cleavage came out at 0.33.

As to U66C U67C, the self-cleavage amounted to 0.32.

Consider C44U U51A, for which the self-cleavage came to 0.35.

As to G6C G42A, the self-cleavage amounted to 0.31.

On to A15G, for which the self-cleavage came out at 0.92.

Turning to A15U, the self-cleavage worked out at 0.76.

As for G7A U41A, the self-cleavage stood at 0.13.

As to G24U A28G, the self-cleavage is 0.17.

Take A2G C59A: the self-cleavage was 0.23.

On to C38A U69A, for which the self-cleavage is 0.19.

G6U U67A: the self-cleavage stood at 0.09.

A75G U76G: the self-cleavage came to 0.43.

With A13G A47C, the self-cleavage came out at 0.57.

Take U25C G30C: the self-cleavage is 0.26.

Take A15G C17U: the self-cleavage was determined as 0.48.

For A13G G52U, the self-cleavage turned out to be 1.14.

As to U31A C44U, the self-cleavage was determined as 0.23.

For the variant U41C A64U, the self-cleavage was determined as 0.4.

Take C23G U78A: the self-cleavage stood at 0.32.

As to C37U, the self-cleavage was 0.79.

As for A47G C62A, the self-cleavage is 0.33.

In the case of G9U U41A, the self-cleavage worked out at 0.15.

As to U1G G63U, the self-cleavage amounted to 0.81.

As to G6U U43C, the self-cleavage was determined as 0.32.

With U51C G63U, the self-cleavage was determined as 1.07.

C23A A47G: the self-cleavage was found to be 0.41.

In the case of U67A C71G, the self-cleavage was 0.33.

In the case of A20G A77U, the self-cleavage was 0.83.

In the case of C11A G46C, the self-cleavage was found to be 0.13.

For the variant G42C U49C, the self-cleavage was found to be 0.1.

On to G46U G53C, for which the self-cleavage was determined as 0.23.

As for U67C C81U, the self-cleavage is 0.37.

For C32U G46A, the self-cleavage was 0.15.

Regarding A5C A75G, the self-cleavage is 0.69.

For U1C A45U, the self-cleavage stood at 0.39.

Consider A47G U66C, for which the self-cleavage was determined as 0.35.

Consider U66C C81U, for which the self-cleavage turned out to be 0.44.

With U25C C32A, the self-cleavage was 0.22.

For the variant G9A G30U, the self-cleavage was 0.06.

A3C A65G: the self-cleavage worked out at 0.92.

Consider A13C C29G, for which the self-cleavage stood at 0.3.

Regarding G22A U51G, the self-cleavage came out at 0.17.

With A21U U49C, the self-cleavage is 0.22.

For the variant C40A U78A, the self-cleavage was found to be 0.22.

With C27G C29U, the self-cleavage was 0.29.

As for U51A U74A, the self-cleavage was 1.29.

Turning to A45G A47U, the self-cleavage amounted to 0.28.

Turning to U49C C71U, the self-cleavage was 0.23.

As to A13G C34U, the self-cleavage came to 0.32.

For U54A U69G, the self-cleavage was 0.92.

As to G19U, the self-cleavage was determined as 0.27.

Turning to G10A U78G, the self-cleavage came out at 0.33.

As to A45G C62A, the self-cleavage turned out to be 0.45.

C59U U74C: the self-cleavage was determined as 1.1.

For the variant A28C G73U, the self-cleavage stood at 0.55.

For A65C, the self-cleavage was 0.29.

In the case of A20C U80A, the self-cleavage is 0.51.

For G55U U60C, the self-cleavage turned out to be 0.27.

In the case of A21G C38G, the self-cleavage is 0.26.

With A56G A77C, the self-cleavage stood at 0.79.

Consider G10U, for which the self-cleavage was found to be 0.23.

Regarding G24A, the self-cleavage is 0.27.

Consider G24U, for which the self-cleavage was 0.3.

For the variant A5G G19A, the self-cleavage was 0.53.

With A15U U66A, the self-cleavage came to 0.34.

In the case of G24A U80A, the self-cleavage came out at 0.24.

Take A5U G8A: the self-cleavage was found to be 0.12.

Take A15U U54A: the self-cleavage is 0.8.

For A45G U54A, the self-cleavage was 0.85.

For the variant U49C A57G, the self-cleavage was 0.35.

Regarding A35G U69G, the self-cleavage worked out at 1.33.

In the case of C29U U51G, the self-cleavage was determined as 0.8.

As for A15G C34U, the self-cleavage turned out to be 0.25.

Turning to A45C A47G, the self-cleavage was found to be 0.17.

As for A3G C40U, the self-cleavage was found to be 0.64.

For A15U U72A, the self-cleavage was found to be 1.09.

For the variant A28G U58A, the self-cleavage was 0.24.

G10C A65G: the self-cleavage was 0.33.

Take A5G C62A: the self-cleavage is 0.22.

With U49C U60A, the self-cleavage is 0.22.

For G33C C40A, the self-cleavage came out at 0.15.

U69A U76C: the self-cleavage was 0.7.

Take C32U U48C: the self-cleavage worked out at 0.13.

Regarding U43A U72G, the self-cleavage was found to be 1.02.

Consider U51C A77C, for which the self-cleavage amounted to 0.98.

On to G33C U60A, for which the self-cleavage was determined as 0.25.

As to A57G U58C, the self-cleavage is 0.33.

On to G8U U26A, for which the self-cleavage stood at 0.07.

On to G16A G73C, for which the self-cleavage was found to be 0.86.

G42A U43G: the self-cleavage is 0.32.

Regarding G52C, the self-cleavage amounted to 1.05.

Regarding G8A U48A, the self-cleavage was 0.27.

On to G46U U60C, for which the self-cleavage was 0.19.

As to A21U A75G, the self-cleavage was 0.27.

In the case of U26A C79A, the self-cleavage came out at 1.07.

In the case of U1A C38G, the self-cleavage turned out to be 0.45.

Consider A5U A77G, for which the self-cleavage was 1.09.

For A3G C34G, the self-cleavage is 0.43.

A20G C38A: the self-cleavage is 0.37.

As to C12A C40A, the self-cleavage amounted to 0.3.

For G9U G24C, the self-cleavage was found to be 0.11.

On to A35G U67A, for which the self-cleavage worked out at 1.2.

Consider C40U A64U, for which the self-cleavage is 0.27.

For the variant C40U A64G, the self-cleavage worked out at 0.54.

On to G9U C40A, for which the self-cleavage came out at 0.14.

As for A2G G30A, the self-cleavage is 0.39.

For C59A U69A, the self-cleavage was found to be 0.18.

For the origin of these results see the RNAGym collection of RNA variant scans (doi:10.1093/nar/gkz1192).
